Experimental data: patent publication US6743893B2, “Receptor-mediated uptake of peptides that bind the human transferrin receptor” (The UAB Research Foundation, priority 2000, dated 2004)

Tests used:
CEF+hTfR cells = test: Immunofluorescence binding and internalization on CEF+hTfR cells; assay type: cell-based, chicken; details: for endocytosis into CEF+hTfR cells (fluorescence after low pH buffer wash): 37° C., low pH buffer wash before fixation
Experimental: Immunofluorescence: CEF+hTfR cells were grown on glass coverslips to 50% to 75% confluence. The coverslips were washed and incubated in serum-free Opti-MEM media at 37° C. for 1 hour. […] Cells were washed with Opti-MEM, then fixed in 3% formaldehyde for 30 minutes at 4° C. Alternatively, the cells were acid-washed with 0.2 M glycine-HCl, Ph 2.2, prior to fixation. A GFP monoclonal antibody (Clontech) was used in conjunction with an Oregon-Green Goat Anti-Mouse (Molecular Probes) to augment GFP fluorescence. All slides were counterstained with DAPI (2(4Amidinophenyl)-6indole carbamidinedihydrochioride) (Sigma). The microscopic slides were mounted in Prolong™ antifade medium (Molecular Probes). Images were captured on an AX70 microscope with Olympus Camera (Olympus, Melville, N.Y.) and analyzed with ESPRIT software (Life Science Resources, Cambridge, England). Final figures were assembled using Microsoft Power Point (Microsoft Corp., Redmond, Wash.).
To evaluate the sufficiency of capacity of the peptides to mediate uptake of carrier protein, GFP fusion proteins were prepared. Immunofluorescence was used to determine if the GFP-peptides fusion constructs were internalized using the following assay. GFP-peptide constructs were cloned with a C-terminal peptide addition of either HAIYPRH (Seq. ID No. 1) (GFP-HAIYPRH) or […] (Seq. ID No. 2) (GFP-[…]). These constructs were expressed and purified to greater than 95% by Coomassie staining. Purified proteins were applied to CEF+hTfR cells at 4° C. (which prevents endocytosis) or at 37° C. […] This acid wash determined whether the protein was endocytosed by removing proteins bound at the cell surface. […]
Immunofluorescence images of the localization of various proteins applied to CEF+hTfR cells at either 4° C. or 37° were studied. […] The total fluorescence shown could result from both cell surface and endocytosed proteins.
The cells that had undergone a low pH buffer wash to enable identification of proteins that had been endocytosed were evaluated.

[1] = target: T1, human transferrin receptor (hTfR) (Homo sapiens, UniProt P02786); test: Scatchard analysis of 125I-labelled protein binding to CEF+hTfR cells; details: CEF+hTfR cells on ice, 1 hour, read-out: binding affinity (Scatchard)
T1 construct: expressed in transfected cells; host or cells: chicken embryo fibroblasts (CEF+hTfR), stably transduced with a retroviral vector
Experimental: 1M NaOH was added to lyse the cells for determining the bound fraction. Both unbound and bound fractions were counted in a gamma counter and binding affinities were determined using Scatchard analysis.
Serial dilutions of labelled proteins were incubated with CEF+hTfR cells on ice in PBS-0.1% BSA in duplicate wells. After 1 hour, the unbound fraction was removed and cells were washed four times. Cells were removed from the well with 1N NaOH. The unbound and bound fractions were counted in a gamma counter and fmoles of bound and unbound were calculated. Scatchard plots were derived by plotting bound versus bound/free of an average value generated by the duplicate wells. A best of fit line was generated using the Excel program (Microsoft Corp.) and the binding affinities were determined by the slope of the plotted lines.

[2] = target: T1, human transferrin receptor (hTfR); test: Competition studies of phage binding to CEF+hTfR cells; details: competitor added prior to phage, 1 hour at 4° C.
Experimental: Binding and Competition Studies: Purified phage populations were amplified and were verified to be homogenous through DNA sequencing. Cells were prepared for binding as was described for biopanning procedures. Preparations of plaque-purified and titered phage (1×10^11) were incubated in serum-free Opti-MEM on either CEF or CEF+hTfR cells at 4° C. for 1 hour. The cells were washed repeatedly with Opti-HEM and bound phage were eluted with low pH buffer and subsequently titered. In competition studies, holo-transferrin (Calbiochem, La Jolla, Calif.) or synthesized peptides were added to CEF+hTfR cells prior to addition of the phage for 1 hour at 4° C. Multiple trials were completed and average titers and standard deviations determined. The titers determined on CEF+hTfR cells were divided by the titers determined on CEF cells and multiplied by 100 to yield fold over control data points.
Due to a synthesis error, a peptide with the sequence HAIYPNH (Seq. ID No. 14) was also synthesized.

CEF cells = test: Immunofluorescence binding assays on CEF cells; assay type: cell-based, chicken; details: 4° C. or 37° C., CEF cells lack the hTfR

T1 sequence (P02786 whole entry): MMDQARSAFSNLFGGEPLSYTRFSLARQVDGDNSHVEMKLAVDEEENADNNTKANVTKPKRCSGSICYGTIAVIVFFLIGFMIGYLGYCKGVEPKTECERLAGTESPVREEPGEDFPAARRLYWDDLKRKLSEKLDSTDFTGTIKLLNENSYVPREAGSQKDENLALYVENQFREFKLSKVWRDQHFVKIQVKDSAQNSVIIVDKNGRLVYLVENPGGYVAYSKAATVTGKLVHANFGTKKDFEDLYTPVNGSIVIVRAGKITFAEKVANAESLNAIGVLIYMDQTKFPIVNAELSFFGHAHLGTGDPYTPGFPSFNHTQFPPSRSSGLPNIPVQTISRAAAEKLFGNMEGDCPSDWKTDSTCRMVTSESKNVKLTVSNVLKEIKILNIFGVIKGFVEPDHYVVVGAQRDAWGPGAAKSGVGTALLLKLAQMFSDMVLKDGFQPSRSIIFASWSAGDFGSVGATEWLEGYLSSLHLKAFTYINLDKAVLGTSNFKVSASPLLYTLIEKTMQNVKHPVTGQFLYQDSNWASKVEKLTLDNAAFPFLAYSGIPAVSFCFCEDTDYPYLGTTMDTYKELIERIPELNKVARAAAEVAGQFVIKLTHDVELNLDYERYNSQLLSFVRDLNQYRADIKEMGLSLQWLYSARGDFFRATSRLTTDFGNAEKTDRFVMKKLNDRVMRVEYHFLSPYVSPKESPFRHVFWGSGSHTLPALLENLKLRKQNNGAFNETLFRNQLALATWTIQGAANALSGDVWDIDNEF

wtGFP: purified wild-type green fluorescent protein, negative control
localization/binding of protein on CEF+hTfR cells without acid wash (CEF+hTfR cells; 37° C. for one hour, no acid wash): minimal binding
endocytosis into CEF+hTfR cells (fluorescence after low pH buffer wash) (CEF+hTfR cells): unable to be endocytosed
Kd [1]: 240 µM

HAIYPNH [peptide synthesized due to a synthesis error, asparagine in place of arginine]
competition of HAIYPRH phage binding to CEF+hTfR cells by added peptide or Tf [2]: no effect

Texas-Red Tf: Tf conjugated to the Texas-Red fluorochrome, positive control
endocytosis into CEF+hTfR cells (fluorescence after low pH buffer wash) (CEF+hTfR cells): readily endocytosed

THRPPMWSPVWP
competition of HAIYPRH phage binding to CEF+hTfR cells by added peptide or Tf [2]: failed to significantly compete

HAIYPRH
competition of HAIYPRH phage binding to CEF+hTfR cells by added peptide or Tf [2]: competed away to background levels
competition of THRPPMWSPVWP phage binding to CEF+hTfR cells by added peptide or Tf [2]: failed to significantly compete

Tf: transferrin from human serum, native ligand of hTfR
binding or internalization on CEF cells (CEF cells): neither of the GFP fusion proteins or transferrin bound or internalized

PWRPSHPVWMPT
competition of THRPPMWSPVWP phage binding to CEF+hTfR cells by added peptide or Tf [2]: not by the scrambled 12-mer sequence
